Reference: PMC8103780

B1: (GT)2 (ssDNA)
DNA: GTGT
B2: T6 (ssDNA)
DNA: TTTTTT
B3: T10 (ssDNA)
DNA: TTTTTTTTTT

target: SARS-CoV-2 nucleocapsid protein (N-protein) (SARS-CoV-2, UniProt P0DTC9 1-419); experiment: SV-AUC

Binder	Kd
B1	> 10000 nM
B2	290 nM
B3	< 100 nM
